2 substances from article PMC7173943 can be followed below.

The target of experiment [1] is HA-CXCR4(D20R)-Rluc3 (UniProt P61073).
Experiment [2] has as its target CXCR4(D187C)-T4L (UniProt P61073). The experiment is described as follows: cross-linking + pull-down; disulfide cross-linking: Cys mutants co-expressed in Sf9 cells; membranes solubilised in DDM/CHS; TALON metal affinity pull-down by the receptor His tag; non-reducing SDS-PAGE and Western blot (anti-Flag, anti-HA); IR800 signal relative to CXCR4(D187C)-vMIP-II(W5C) set to 100%. (In general: A western blot detects proteins with antibodies after separation by electrophoresis.)

On to “CXCL12(R47E) (from UniProt P48061-2 22-89) (ligand)”, for which the β-arrestin-2 recruitment to HA-CXCR4-Rluc3 (BRET2, HEK293T cells), pEC50 in experiment [1] is 5.89 -log10(EC50).

With vMIP-II(W5C) (ligand), the fraction of extracted receptor cross-linked in experiment [2] stood at 100%.
